Test results as given in publication PMC10611751.

Biological target: Ankyrin-G ANK repeats 8-24
Assay: ITC; E-cadherin proteins in the syringe (e.g. 200 μM Trx-E-cadherin) titrated into AnkG in the cell (e.g. 20 μM Trx-AnkG R1-24); 25 °C; 50 mM Tris, 100 mM NaCl, 1 mM EDTA, 1 mM DTT, pH 7.8; one-site binding model

Chain of E-cadherin 828-869 (containing both site-2 and site-3) (P09803 828-869): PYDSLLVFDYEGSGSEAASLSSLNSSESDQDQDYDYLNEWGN
Chain of E-cadherin C-terminal domain (residues 734-884) (P09803 734-884): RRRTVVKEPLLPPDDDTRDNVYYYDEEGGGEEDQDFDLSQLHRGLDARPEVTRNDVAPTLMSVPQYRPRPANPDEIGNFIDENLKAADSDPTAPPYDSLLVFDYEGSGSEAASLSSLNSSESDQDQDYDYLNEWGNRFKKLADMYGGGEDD
Chain of E-cadherin 751-775 (site-1) (P09803 751-775): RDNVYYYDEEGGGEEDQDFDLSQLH

Point of comparison: “E-cadherin C-terminal domain (residues 734-884) (from UniProt P09803 734-884) (domain or fragment)”, Kd 1500 nM. Against it:
- E-cadherin 751-775 (site-1) (from UniProt P09803 751-775) (domain or fragment) — within 1.5-fold, 1300 nM
- E-cadherin 828-869 (containing both site-2 and site-3) (from UniProt P09803 828-869) (domain or fragment) — 1.7-fold higher, 2500 nM
